According to paper PMC6168463, “Arc/Arg3.1 has an activity-regulated interaction with PICK1 that results in altered spatial dynamics” (Scientific Reports, 2018):

Columns and labels:
[1] = molecular target: the molecule itself; experiment: TIRF number and brightness (N&B) analysis; live SH-SY5Y cells, plasma membrane; brightness normalised to monomeric EGFP or mCherry; alone or co-transfected
[2] = molecular target: T1, Arc-mCherry (mouse), Q9WV31; experiment: as above; details: remark: other sources report otherwise
T1 chain: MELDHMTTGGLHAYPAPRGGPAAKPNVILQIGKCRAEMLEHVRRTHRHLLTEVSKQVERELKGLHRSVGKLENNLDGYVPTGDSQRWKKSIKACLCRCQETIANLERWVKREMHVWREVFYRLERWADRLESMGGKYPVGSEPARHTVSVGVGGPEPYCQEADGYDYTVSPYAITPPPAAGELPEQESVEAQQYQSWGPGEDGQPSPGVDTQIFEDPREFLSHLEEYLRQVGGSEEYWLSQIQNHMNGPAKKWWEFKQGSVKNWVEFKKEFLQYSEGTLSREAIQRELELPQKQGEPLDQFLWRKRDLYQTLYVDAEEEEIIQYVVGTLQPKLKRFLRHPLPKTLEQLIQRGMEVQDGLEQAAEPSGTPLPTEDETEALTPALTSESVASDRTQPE

[3] = molecular target: T1, Arc-mCherry (mouse), Q9WV31; experiment: photon counting histogram (PCH) brightness analysis; live SH-SY5Y cells, cytosol; brightness normalised to monomeric EGFP or mCherry; co-transfected with the other construct or with the free fluorescent protein; 20 to 1,500 nM; details: remark: other sources report otherwise
His-PICK1 = molecular target: T2, His-PICK1 (human, UniProt Q9NRD5 1-415); experiment: pull-down; soluble His-PICK1 (1, 5 and 10 µM) with GST-Arc (1 µM) or GST (1 µM) bound to glutathione-agarose, or resin alone; 20 mM HEPES pH 7.5, 100 mM NaCl, 1 mM DTT, 1 h at 4 °C; bound PICK1 from SDS-PAGE and BCA assay; details: both partners purified
T2 construct: also called recombinant His-PICK1; source: E. coli BL21-Codon(+) DE3, pQE-80L, purified (HisTrap; SEC when needed)

B1: EGFP-PICK1 (natural protein, human, UniProt Q9NRD5 1-415, looked up)
chain: MFADLDYDIEEDKLGIPTVPGKVTLQKDAQNLIGISIGGGAQYCPCLYIVQVFDNTPAALDGTVAAGDEITGVNGRSIKGKTKVEVAKMIQEVKGEVTIHYNKLQADPKQGMSLDIVLKKVKHRLVENMSSGTADALGLSRAILCNDGLVKRLEELERTAELYKGMTEHTKNLLRAFYELSQTHRAFGDVFSVIGVREPQPAASEAFVKFADAHRSIEKFGIRLLKTIKPMLTDLNTYLNKAIPDTRLTIKKYLDVKFEYLSYCLKVKEMDDEEYSCIALGEPLYRVSTGNYEYRLILRCRQEARARFSQMRKDVLEKMELLDQKHVQDIVFQLQRLVSTMSKYYNDCYAVLRDADVFPIEVDLAHTTLAYGLNQEEFTDGEEEEEEEDTAAGEPSRDTRGAAGPLDKGGSWCDS
notes: PICK1, 'a human variant of PICK1' ligated to EGFP at the N terminus; source: SH-SY5Y cells, transfected, in live cells; not shown: EGFP, N-terminal, kept
B1 was tested, and the “stoichiometry N” value [1] was 2.

B2: GST-Arc (natural protein, mouse, UniProt Q9WV31 1-396, looked up)
chain: T1 chain
notes: Arc (activity-regulated cytoskeleton-associated protein, Arg3.1), mouse cDNA; also called Arg3.1; Activity-regulated cytoskeleton-associated protein; source: pGST.parallel 1 vector, purified (glutathione agarose resin, eluted with 50 mM glutathione; SEC when needed)
B2 was tested, and the stoichiometry N [2] was 2, the normalized brightness (Norm. ε) [3] was 1.37 and the binding result (His-PICK1) was “binds”.
